B1: human MLKL pseudokinase domain, as used for the KD measurements (domain or fragment)
chain: QEQIKEIKKEQLSGSPWILLRENEVSTLYKGEYHRAPVAIKVFKKLQAGSIAIVRQTFNKEIKTMKKFESPNILRIFGICIDETVTPPQFSIVMEYCELGTLRELLDREKDLTLGKRMVLVLGAARGLYRLHHSEAPELHGKIRSSNFLVTQGYQVKLAGFELRKTQTSMSLGTTREKTDRVKSTAYLSPQELEDVFYQYDVKSEIYSFGIVLWEIATGDIPFQGCNSEKIRKLVAVKRQQEPLGEDCPSELREIIDECRAHDPSVRPSVDEILKKLSTFSK

Legend:
Mb(MLKL_26) = assay: FACS; yeast display
[1] = biological target: B1; assay: previously reported

Kd (Mb(MLKL_26)) [nM] | Kd [1] [nM] | Binder
176 |  | B1
 | 37.1 | Mb(MLKL_32) (protein) VSSVPTKLEVVAATPTSLLISWDAPAVTVDLYIITYGETGGNSPVQTFEVPGSKSTATISGLSPGVDYTITVYAYSFMYHDYYYPEWSPISINYRT

From article PMC8044208 (2021)
